The text below walks through data of the supplement of paper PMC5998384.

Data set [1] deals with HeLa Kyoto. In words: solubility in G1/S (NP-40 vs SDS abundance) (log2 ratio); higher = more soluble. Particulars: cell cycle stage: G1/S.
Data set [2] has as its system HeLa Kyoto. The data set can be described thus: melting temperature (median over replicates), in situ; higher = more thermally stable.
Data set [3] deals with HeLa Kyoto. The data set can be described thus: solubility change mitosis vs G1/S (difference of NP-40 vs SDS log2 ratios) (log2 ratio difference); higher = more soluble in mitosis.
Data set [4] relates to HeLa Kyoto. The data set can be described thus: thermal stability score vs G1/S (z-score of summed log2 fold changes over temperatures); higher = more thermally stable than in G1/S.
[5] abbreviates: cell cycle stage: early G1 (4.5 h after nocodazole release).
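For melting temperature (median over replicates), in situ in this document: HeLa Kyoto cells synchronized by double thymidine or nocodazole block, proteins quantified by TMT10plex mass spectrometry, three independent biological replicates.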
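For solubility change mitosis vs G1/S (difference of NP-40 vs SDS log2 ratios) in this document: synchronized HeLa Kyoto cells (double thymidine block for G1/S, nocodazole release for mitosis), protein amounts in NP-40 versus SDS lysates quantified by mass spectrometry, three biological replicates.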
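For solubility in G1/S (NP-40 vs SDS abundance) in this document: HeLa Kyoto cells arrested at G1/S by double thymidine block, proteins quantified by TMT10plex mass spectrometry in mild NP-40 versus SDS extracts, three biological replicates.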
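For thermal stability score vs G1/S (z-score of summed log2 fold changes over temperatures) in this document: synchronized HeLa Kyoto cells, proteins quantified by TMT10plex mass spectrometry, three biological replicates, mitosis taken 0.5 h after nocodazole release, G1/S directly after double thymidine block.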

Take CXORF56: the “solubility in G1/S (log2)” value in data set [1] was -0.0564. Also, the figures for the melting temperature in data set [2] (cell cycle stage: G1/S) and in data set [2] (cell cycle stage: mitosis) were 50.6 °C and 51.3 °C, respectively. In addition, the “solubility change mitosis (log2)” value in data set [3] was 0.1. Besides, the thermal stability score in data set [4] (setting [5]) is -1.87; in data set [4] (cell cycle stage: mitosis), -1.28.

With “MRLHLLLLLALCGAGTTAAELSYSLRGNWSICNGNGSLELPGAVPGCVHSALFQQGLIQDSYYRFNDLNYRWVSLDNWTYSKEFKIPFEISKWQKVNLILEGVDTVSKILFNEVTIGETDNMFNRYSFDITNVVRDVNSIELRFQSAVLYAAQQSKAHTRYQVPPDCPPLVQKGECHVNFVRKEQCSFSWDWGPSFPTQGIWKDVRIEAYNICHLNYFTFSPIYDKSAQEWNLEIESTFDVVSSKPVGGQVIVAIPKLQTQQTYSIELQPGKRIVELFVNISKNITVETWWPHGHGNQTGYNMTVLFELDGGLNIEKSAKVYFRTVELIEEPIKGSPGLSFYFKINGFPIFLKGSNWIPADSFQDRVTSELLRLLLQSVVDANMNTLRVWGGGIYEQDEFYELCDELGIMVWQDFMFACALYPTDQGFLDSVTAEVAYQIKRLKSHPSIIIWSGNNENEEALMMNWYHISFTDRPIYIKDYVTLYVKNIRELVLAGDKSRPFITSSPTNGAETVAEAWVSQNPNSNYFGDVHFYDYISDCWNWKVFPKARFASEYGYQSWPSFSTLEKVSSTEDWSFNSKFSLHRQHHEGGNKQMLYQAGLHFKLPQSTDPLRTFKDTIYLTQVMQAQCVKTETEFYRRSRSEIVDQQGHTMGALYWQLNDIWQAPSWASLEYGGKWKMLHYFAQNFFAPLLPVGFENENTFYIYGVSDLHSDYSMTLSVRVHTWSSLEPVCSRVTERFVMKGGEAVCLYEEPVSELLRRCGNCTRESCVVSFYLSADHELLSPTNYHFLSSPKEAVGLCKAQITAIISQQGDIFVFDLETSAVAPFVWLDVGSIPGRFSDNGFLMTEKTRTILFYPWEPTSKNELEQSFHVTSLTDIY [MANBA]”, in data set [1], the “solubility in G1/S (log2)” value was -0.0999. Further, the melting temperature in data set [2] (cell cycle stage: G1/S) was determined as 55.6 °C; in data set [2] (cell cycle stage: mitosis), 56 °C. Moreover, the “solubility change mitosis (log2)” value in data set [3] is -0.0887. For the same substance, the thermal stability score is -1.93 in data set [4] (setting [5]) and -0.28 in data set [4] (cell cycle stage: mitosis).

“MEMEQEKMTMNKELSPDAAAYCCSACHGDETWSYNHPIRGRAKSRSLSASPALGSTKEFRRTRSLHGPCPVTTFGPKACVLQNPQTIMHIQDPASQRLTWNKSPKSVLVIKKMRDASLLQPFKELCTHLMEENMIVYVEKKVLEDPAIASDESFGAVKKKFCTFREDYDDISNQIDFIICLGGDGTLLYASSLFQGSVPPVMAFHLGSLGFLTPFSFENFQSQVTQVIEGNAAVVLRSRLKVRVVKELRGKKTAVHNGLGENGSQAAGLDMDVGKQAMQYQVLNEVVIDRGPSSYLSNVDVYLDGHLITTVQGDGVIVSTPTGSTAYAAAAGASMIHPNVPAIMITPICPHSLSFRPIVVPAGVELKIMLSPEARNTAWVSFDGRKRQEIRHGDSISITTSCYPLPSICVRDPVSDWFESLAQCLHWNVRKKQAHFEEEEEEEEEG [NADK]”: the “solubility in G1/S (log2)” value in data set [1] is 0.208. Besides, the melting temperature in data set [2] (cell cycle stage: G1/S) was found to be 61.1 °C; in data set [2] (cell cycle stage: mitosis), 59.2 °C. Besides, the “solubility change mitosis (log2)” value in data set [3] was found to be 0.129. The thermal stability score in data set [4] (setting [5]) was -6.99; in data set [4] (cell cycle stage: mitosis), -2.68.

On to “MAAPMLRWGCRGRRWAFARVDGGSCHRRGAPTGSTSNQIRGESSVAQQPLHTAQKTRKGEHKWAAVVGLEIHAQISSNSKLFSGSQVRFSAPPNSLVSFFDASLPGTLPVLNRRCVEAAVMTGLALNCHINKKSLFDRKHYFYADLPAGYQITQQRLPIAVNGSLIYGVCAGKKQSQVIPKTVRIKQIQLEQDSGKSLHDNLRSQTLIDLNRAGVGLLEVVLEPDMSCGEEAATAVRELQLILQALGTSQANMAEGQLRVDANISVHHPGEPLGVRTEVKNLNSIRFLAKAIDYEIQRQINELENGGEILNETRSFHHKLGCTMSMRDKEGKQDYRFMPEPNLPPLVLYDATSLPAGADPQQVINIDQIRETLPELPSVTREKLVQQYGMLLEHSFTLLNEVGLLEFFQNVIKETRAEPKKVTSWVLNTFLGYLKQQNLAVSESPVTPSALAELLDLLDSRTISSSAAKQVFEELWKREGKTPGQIVSEKQLELMQDQGALEQLCHSVMEAHPQVVMDVKNRNPRAINKLIGLVRKATQSRADPVMIKEILEKKLSL [GATB]”, for which the “solubility in G1/S (log2)” value in data set [1] was 0.473. Further, the melting temperature in data set [2] (cell cycle stage: G1/S) is 48.3 °C; in data set [2] (cell cycle stage: mitosis), 48.7 °C. Also, the “solubility change mitosis (log2)” value in data set [3] was -0.154. Also, the thermal stability score in data set [4] (setting [5]) was -0.148; in data set [4] (cell cycle stage: mitosis), 0.829.

“MGIKVQRPRCFFDIAINNQPAGRVVFELFSDVCPKTCENFRCLCTGEKGTGKSTQKPLHYKSCLFHRVVKDFMVQGGDFSEGNGRGGESIYGGFFEDESFAVKHNKEFLLSMANRGKDTNGSQFFITTKPTPHLDGHHVVFGQVISGQEVVREIENQKTDAASKPFAEVRILSCGELIPKSKVKKEEKKRHKSSSSSSSSSSDSDSSSDSQSSSDSSDSESATEEKSKKRKKKHRKNSRKHKKEKKKRKKSKKSASSESEAENLEAQPQSTVRPEEIPPIPENRFLMRKSPPKADEKERKNRERERERECNPPNSQPASYQRRLLVTRSGRKIKGRGPRRYRTPSRSRSRDRFRRSETPPHWRQEMQRAQRMRVSSGERWIKGDKSELNEIKENQRSPVRVKERKITDHRNVSESPNRKNEKEKKVKDHKSNSKERDIRRNSEKDDKYKNKVKKRAKSKSRSKSKEKSKSKERDSKHNRNEEKRMRSRSKGRDHENVKEKEKQSDSKGKDQERSRSKEKSKQLESKSNEHDHSKSKEKDRRAQSRSRECDITKGKHSYNSRTRERSRSRDRSRRVRSRTHDRDRSRSKEYHRYREQEYRRRGRSRSRERRTPPGRSRSKDRRRRRRDSRSSEREESQSRNKDKYRNQESKSSHRKENSESEKRMYSKSRDHNSSNNSREKKADRDQSPFSKIKQSSQDNELKSSMLKNKEDEKIRSSVEKENQKSKGQENDHVHEKNKKFDHESSPGTDEDKSG [PPIG]”: the “solubility in G1/S (log2)” value in data set [1] was -1.67. For the same substance, the melting temperature in data set [2] (cell cycle stage: G1/S) came to 45.8 °C; in data set [2] (cell cycle stage: mitosis) it was 47.6 °C. Moreover, in data set [3], the “solubility change mitosis (log2)” value turned out to be 0.846. The thermal stability score in data set [4] (setting [5]) came out at 1.25; in data set [4] (cell cycle stage: mitosis), 2.05.
